The text below walks through data of the DeepSol protein solubility set.

This data set can be described thus: soluble on expression in E. coli; label from the status in PepcDB or PDB records.
Turning to “NYYERHIGDYARDTGYLSVLEHGIYCLLLDRYYATEQPIPANKAHRIARAHSKKEKSAVDVVLDEFFLLQ”, the “soluble on expression in E. coli” value is reported as “not soluble”.

As to “MADWVTGKVTKVQNWTDALFSLTVHAPVLPFTAGQFTKLGLEIDGERVQRAYSYVNSPDNPDLEFYLVTVPDGKLSPRLAALKPGDEVQVVSEAAGFFVLDEVPHCETLWMLATGTAIGPYLSILRLGKDLDRFKNLVLVHAARYAADLSYLPLMQELEKRYEGKLRIQTVVSRETAAGSLTGRIPALIESGELESTIGLPMNKETSHVMLCGNPQMVRDTQQLLKETRQMTKHLRRRPGHMTAEHYW”, the “soluble on expression in E. coli” value is listed as “soluble”. The same measure for “MGHHHHHHSHDGSLVHISISPYPAILHEYVSSSKWEDAVRLCRFVKEQTMWACLAAMAVANRDMTTAEIAYAAIGEIDKVQYINSIKNLPSKESKMAHILLFSGNIQEAEIVLLQAGLVYQAIQININLYNWERALELAVKYKTHVDTVLAYRQKFLETFGKQETNKRYLHYAEGLQIDWEKIKAKIEMEITKEREQSSSSQSSKSIGLKP”: “not soluble”; for “FFETIHPDDRERIRSEIETAGDSGEPNSVEFRFVEPDGTVVWVVGQAVPVTDDEGNLTERVVGIATDITDLKQR”: “not soluble”; for “MAHHHHHHMKCQKIRRDIFIYMLYNFSFCAGKKEDKDKGKDKDKEKKKLESVPISHMGKKKKKNKGTSGHSKLPNVTPNTKCRLKLLKLERIKDYLLLEEEYITNQEQIKSSDDKNYVKLKIDDLRGSPVSVGTLEELIDENHGIIATSVGPEYYVNILSFVDKDLLEPGCSVLLNNKTNSVVGILLDEVDPLVSVMKVEKAPLESYADIGGLESQIQEIKEAVELPLTHPELYEDIGIKPPKGVILYGPPGTGKTLLAKAVANETSATFLRVVGSELIQKYLGDGPKLVREMFKVAEEHAPSIVFIDEIDAVGTKRYEATSGGEREIQRTMLELLNQLDGFDSRGDVKVIMATNRIDSLDPALIRPGRIDRKIQLPNPDTKTKRRIFQIHTSKMTMSPDVDLEEFVMSKDELSGADIKAICTEAGLLALRERRMKITQADLRKARDKALFQKKGNIPEGLYL”: “not soluble”.

For the sequence “MNPLERKVKQEAEEDGYSSFDEFPAGAIRIPYEELMAKVRAKKAEAEAAQDLVNENSFDQFVAAPPAPPVQKPAVEPSPSCSPETVAVQKFVTEFMQAAGGSRELRIIKDSQETKIVWKTSPAKPKAPPVEDDPTDPTDSQVSTVSSIIPVSSPRGKRRIVVSSDKDSDGDETPTEDNVNNDDQDVTPKKNRKPPVEVVTPSPAKRLRGLNLRSAHSSSDSESDFQDTQCEDSQDSDYFPDTQEQRDRPADFRIPKNAAYDPLDLSYN”, the “soluble on expression in E. coli” value is “not soluble”. For the sequence “MLNTKSPSPANSNYDFALRHERVKLIARALKQFGVYITRTTQAMREVASCLSLVGQSYHEVAQCVNNTNPHSRADQDCYISFNRQLVESYGANLQNAATLFSAEMMNIKNGEQFLSYNKSVHRTVMTRLHDVLKMAQRTRDLGDDVKAELKKATSCRKVVSRKEAKYIRKGRPLTESKLYVRQSERMRKHDQAYEAKLRTFDTEYESLMQRQLYVAGHTMDDFLDMNTVYLSHILKVLGCLAPNGAEAIQKMLDSGEKLSDLLGIAPEDQLGCRLRAQNVDVLNSSNVTPVKRGVGATPGKGTPAKSSCCGSSHNFTSYYQNRRQAALYVEGAPPTARALGEDSRGSSEPCQTLSETPERQLISNQTPLRATFGSAAICRAASHSYSAAEPAAPSPLQPPSFPAAVRRVDAAPVPYVKPLAIGLHASCGSPGTTTDAAKQTCPAGNAAPAAWVVKTGGRRGSVCDTTNSRTRVELSLGHAQFDDDNTAAGAPPAACLAPAPPPAQYSEERPMERPLGRSEVPAAQAAMFGLDVARSAAPFDDQLVADSCRRTSLLSLKPVALFPLDVSESSISRKVAPRTSAATTSVANPSTQQRSRRDRKKHKTTKVVAAARGVPLPGTASAPPDEDTMSRSTSTQSQEALESSIHGYHAAHYHCPPPQQLHNLKQHPQRDSAPVSLAHFQMELTGCSGDAPCQWRNDGLCSEAGGVSGRSQRLSTSYGLDSPTPTPQPFALGTHAWEDSQVRPCSSA”, the “soluble on expression in E. coli” value is listed as “not soluble”.

As to “MGSDKIHHHHHHLPTSVSPISYQLTVKTYLPGYGYTADKNNLTFEGQVLIELNITKSIKKVSLNSKDLNYTEEFIKKSSILVNGKSIAFTLDDKQSTHEKIFFNLDETVEPTTSATLKVAFGAPLRTDMSGLYQTTYTNSKGESKMAAVTQMEPVYARRMVPCFDEPAYKATWTVTVIHPNKTVAVSNGIEDKVEDGQPGFIISTFKPTPRMSSYLLAIFISEFEYNEATTKSGVRFRVWSRPEEKNSTMYAVEAGVKCLEYYEKYYNISFPLPKQDMVALPDFSAGAMENWGLITYRESALLYDPRIYSGSQKRRVAVVIAHELAHQWFGNLVTLKWWNDLWLNEGFATLVEYLGTDEISDGNMRMREWFTMDALWSALAADSVASTHPLTFKIDKAMEVLDSFDSVTYDKG”, the “soluble on expression in E. coli” value is reported as “not soluble”. Turning to “MGSDKIHHHHHHMNFTQNEKLKQLSERSIVIGVDIASELHYARAFDWRGVELGKVFKFENSAEGFKNLYAWIERIKRQAQKDSIVVGAEPTGHYWFGLASYLKEQNIKLVLVNPFHVKRSKELDDNHPSKTDAKDPKTIAKLVIEGRYNEPYIPEGLYAELRIAVTCRVRIQKEMNSIKNRIQRWLKIYFPEHETVFGKFDATSSMLVLQVAPLPRDIERLGVEGINRIWRDNKLRAVGMKRAKSLYEAAQKSIGCTEGESCSRMEIQLLLQDYHTKTAQYQAVTETIDGLCRQIPEVAKLLEIKGVGLVTVAGFLSEVGDIKRFNSPKQIQKLAGLALRESSSGKHKGQTTISKRGRARLRAILFQAVMPLVAKNAEFAEIHNYYTTRTQNPLKKKQSLIALSCKLIRVFYAILTKGTDYDPKKLIMDIHRPVEYLAA”, the “soluble on expression in E. coli” value is “not soluble”. For the sequence “MQGLTATLLPFGATLAKLTFPDKNGKNQDLVLGFDTIDEFEKDAASIGKTVGRVANRIKNSTLHFDGKQYTMTPNNGPHYLHGGPNGLGYRKWEVVRHAPESVSFSVRANEQDDGLPGDAKIDVTYTVNDRNQLIIEHHATCDTPGLLALTNHAYWNLDGSDTVAEHFLEMEADEFVEVDDTFCPTGAIRSVTDTGFDFRSGKQLKESGKDAEELLDLDNDLVITKKTP”, the “soluble on expression in E. coli” value is on record as “not soluble”. Regarding “MPTPGTGSVPELQLVPFQLGHFPILQRWFATEKELVQWAGPALRHPLSLEQMHEDLAESRRRPPLRLLWSACRDDQVIGHCQLLFDRRNGVVRLARIVLAPSARGQGLGLPMLEALLAEAFADADIERVELNVYDWNAAARHLYRRAGFREEGLRRSATRVGRERWNVVLMGLLRQEWAAGGAGND”, the “soluble on expression in E. coli” value was “soluble”. Turning to “MRFAVLGSGSQGNGTLIVSADTCVLVDCGFSLRETERRLLRLGVDPAQLSAILVTHEHADHVHGVGLLSRRYNLPVYLSQGTLRGMRKPVEVAGFVRGGESLQIGALRIDVIAVAHDAQEPTQFVFSDGQRRFGLLTDLGSYCAGVLDGYRGLDALMIEANHCRDRLARGYYPYFLKQRVGGDLGHLNNHQAASLVAELGWQDLQHLVLAHLSSKNNLPQLARQCFVDTLGCDPDWLQLADQDSGLDWRHIALEHHHHHH”, the “soluble on expression in E. coli” value was “not soluble”. Take “MPHILNVTVPIPETHVLITKDEYDELIGYSLDPVWNMSDLKKKLKIASDETIKDRLLFHPRFEKELRAQGIVHYPDENFNRWRFNARKMNKFVDEHFNEIYKERIKLEHHHHHH”: the “soluble on expression in E. coli” value is given as “not soluble”.

As for “ATLHSFVLVDNGGTGNVTVVPVSNANGVAEWLSNNSRSQAYRVTASYRASGADKRKYTIKLEVPKIVTQVVNGVELPVSAWKAYASIDLTIPIFAATDDVTVISKSLTGLFKVGNPIAEAISSQSGFYA”, the “soluble on expression in E. coli” value was “soluble”.

Regarding “GSHMSETDLLMKMVRQPVKLYSVATLFHEFSEVITKLEHSVQKEPTSLLSEENWHKQFLKFAQALPAHGSASWLNLDDALQAVVGNSRSAFLHQLIAKLKSRHLQVLELNKIGSEPLDLSNLPAPFYVLLPESFAARITLLVQDKALPYVRVSMEYWHALEYKGELNDPAANKARKEAELAAATAEQ”, the “soluble on expression in E. coli” value was “soluble”. The same measure for “GSMPKPGILKSKSMFCVIYRSSKRDQTYLYVEKKDDFSRVPEELMKGFGQPQLAMILPLDGRKKLVNADIEKVKQALTEQGYYLQLPPPPEDLLKQHLSVMGQKTDDTNK”: “soluble”; for “MSLSLWQQCLARLQDELPATEFSMWIRPLQAELSDNTLALYAPNRFVLDWVRDKYLNNINVLLNDFCGMDAPLLRFEVGSKPLVQTISQPAQSHHNPVSVARQQPVRMAPVRPSWDNSPVQAEHTYRSNVNPKHTFDNFVEGKSNQLARAAARQVADNPGGAYNPLFLYGGTGLGKTHLLHAVGNGIIARKPNAKVVYMHSERFVQDMVKALQNNAIEEFKRYYRSVDALLIDDIQFFANKERSQEEFFHTFNALLEGNQQIILTSDRYPKEINGVEDRLKSRFGWGLTVAIEPPELETRVAILMKKADENDIRLPGEVAFFIAKRLRSNVRELEGALNRVIANANFTGRSITIDFVREALRDLLALQEKLVTIDNIQKTVAEYYKIKIADLLSKRRSRSVARPRQMAMALAKELTNHSLPEIGDAFGGRDHTTVLHACRKIEQLREESHDIKEDFSNLIRTLSSLEHHHHHH”: “soluble”. Take “MVAGGFGVGKTTLIGSVSEVRPLRMEEPITQASAGVDDLRGTPHKTTTTVAMDFGRIHMAGGRLALYLFGLPGQSRFQPLWEDLAEGALGCLVLADTRDLDASHDALGLLDGAGIPYAVAINTFPGSPSYPEAELREALALEPATPLTYCDARDRTSSLHALITLTEYLSEHRSAALLESRRLEHHHHHH”: the “soluble on expression in E. coli” value is “not soluble”. The same measure for “MGSDKIHHHHHHMDVRFINEQTIMIYFENKISEETYRNVTAMVRWIREKEILEIQDIVPSYRAVLIYFDEQAITSSKLIENLELNKFNEKNVHAVNQTNRIIKIPVQYGGTYGPDIEEVAKHNRITVEQVIEKHTSKPYLIYMLGFMPGFPYLGGLDEQLHTPRRNQPRLKIHAGSVGIANNQTGLYPSDSPGGWQIIGRTPLKVFSSEREPMSMYEAGEWIQFYAIDEQKFIQIERDISDGNFNVDDWVVIENVN”: “not soluble”; for “MPAQPNPEQRDWLEALNAGDATMGESRLFERDGTWYLHVTATRDVEERSDVSAEERTPIGVDIGEASLATVCHRDGHGSPTAPELWADEGKTVRRLRKTYFTATRRLQTRGSERIVESFGDDIWDQIDDVFHRVTREVVEYAESVENPVLVLEDLTYIRESMDYGEYMNRRLHGWGFAKLHAQIRYKAVEKGIPVETVNPCNTSKECHACGEVGYRPRQATFKCTNDACWMGESQADVNGAINIADRYLSGESHSREHTDGDDSAGDGGRLTAPQDTLADATTQETLGTYAS”: “soluble”; for “MSLTQRIDFQTDPSRYRHWRVAYDGEIANLYMDVDEQGGLFPGYELKLNSYDLGVDIELADIVQRMRFEHPEVKVVVMQSGKDRVFCAGANIRMLGGASHAHKVNFCKFTNETRNTYEAAEADSGQKYIAAVKGACAGGGYELALACNYIMLTNDSSSSVALPEVPLLAVLPGTGGLTRVTDKRKVRRDLADVFCSVEEGVRGQRAVDWRLVDEIAPNSKFDEVVQERAREFASASVKPSGLTGIALTPLDRRFAEDGSVTYSTVEVVVEREAGRATLTISGPTDAAPDTVDALQAQGAEAWILRAARELDDAILHLRLNERRIGTLVIQTQGDGAAVAAHEALLLENRDHWLANEILQHWKRVLKRVDMTSRSLVAIVEHGSCFAGPLAELLWAVDRSYMMLEEGHHHHHH”: “not soluble”.
